We go through one molecule from paper PMC2364164.

The target of the test is recombinant fusion protein of MVP and glutathione-S-transferase (GST-MVP) (human) (UniProt Q14764). Nature of the test: SPR; BIAcore 2000; GST-MVP immobilised on CM-5 sensorchip (2000 resonance units); soluble Fab flowed at 25 μl per minute, room temperature, HBS-EP (0.01 M HEPES pH 7.4, 0.15 M NaCl, 3 mM EDTA, 0.005% polysorbate 20); dissociation rates only.
Sequence of UniProt Q14764 (Q14764 whole entry, the tested form may be a part): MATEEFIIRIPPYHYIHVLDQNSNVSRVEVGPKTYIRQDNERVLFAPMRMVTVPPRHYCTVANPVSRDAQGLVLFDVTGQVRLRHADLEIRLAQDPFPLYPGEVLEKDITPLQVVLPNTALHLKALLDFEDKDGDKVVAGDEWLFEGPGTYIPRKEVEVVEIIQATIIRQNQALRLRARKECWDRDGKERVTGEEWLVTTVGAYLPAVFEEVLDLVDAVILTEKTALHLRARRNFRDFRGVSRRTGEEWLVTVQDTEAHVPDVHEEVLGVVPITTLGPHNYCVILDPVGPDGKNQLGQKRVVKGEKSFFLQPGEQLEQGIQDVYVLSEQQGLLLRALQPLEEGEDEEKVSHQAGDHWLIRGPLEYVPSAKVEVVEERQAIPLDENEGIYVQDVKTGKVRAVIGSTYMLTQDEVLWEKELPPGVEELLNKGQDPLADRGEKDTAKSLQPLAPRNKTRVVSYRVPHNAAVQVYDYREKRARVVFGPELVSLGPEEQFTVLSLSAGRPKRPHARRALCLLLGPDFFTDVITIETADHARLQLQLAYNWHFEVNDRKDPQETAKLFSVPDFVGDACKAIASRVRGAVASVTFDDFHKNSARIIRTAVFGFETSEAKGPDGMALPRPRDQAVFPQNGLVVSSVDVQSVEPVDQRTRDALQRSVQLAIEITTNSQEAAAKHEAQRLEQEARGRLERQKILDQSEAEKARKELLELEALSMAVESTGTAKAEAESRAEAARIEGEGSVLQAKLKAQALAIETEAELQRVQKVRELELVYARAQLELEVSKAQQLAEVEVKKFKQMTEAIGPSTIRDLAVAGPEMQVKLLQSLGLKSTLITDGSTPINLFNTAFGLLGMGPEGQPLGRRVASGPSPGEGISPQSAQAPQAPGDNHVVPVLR

B1: MVP-φ4 human Fab fragment (soluble) (Fab, V domains shown)
VH: QLQLQESGPGLVKPSETLSLTCSVSGGSISSGGYYWSWIRQRPGKGLEWIGYIYYSGSTTYNPSLKSRVTMSVDTSKNQFSLKLSSVTAADTAFYYCARQGVYYYYGMDVWGQGTTVTVSS
VL: NFMLTQPHSVSESPGKTITISCTRSSGSIGSNYVYWYQQRPDSSPTIVIYADNERPSGVPGRFSGSIDSSSNSASLTISGLRAEDEADYYCQSYSNNKWIFGGGTKVTVL
For orientation: koff means a measure of how fast the partners let go of each other. Turning to B1, the koff is 0.0013 s⁻¹.
